In patent publication US20060211075A1, “Enzyme sensors including environmentally sensitive or fluorescent labels and uses thereof” (The Albert Einstein College of Medicine of Yeshiva …, priority 2005, published 2006) one finds Fold change in fluorescence intensity data, which are given here for one molecule.

Starred links: 1 amine or outer side, 2 acyl side, 3 side chain; linkers in the order of their positions; H or OH if unused. Non-standard residues stand in square brackets, D forms with d. pY = N[C@@H](Cc1ccc(OP(=O)(O)O)cc1)C(=O)O; Cysteamide = C(CS[*:3])N[*:1]; Dap = NC[C@H](N)C(=O)O

This assay deals with GST-Lck-SH2 (UniProt P06239). Nature of the assay: fluorescence change on Src-catalysed phosphorylation in presence of GST-Lck-SH2 (1.25 µM peptide, 5 µM Lck-SH2, 12 nM Src, 1 mM ATP).
GST-Lck-SH2, sequence (P06239 127-224): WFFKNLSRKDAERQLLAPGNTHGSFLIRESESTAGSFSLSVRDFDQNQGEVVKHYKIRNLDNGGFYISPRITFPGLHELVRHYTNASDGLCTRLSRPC

B1: Src-phosphorylated library peptide with Dap-5 (dapoxyl on Dap) at P+1 of Ac-Glu-Glu-Glu-Ile-Tyr-Gly-Glu-Ile-Glu-Ala (peptide)
peptide: Ac-EEEI[pY][Dap](dapoxyl)EIEA-Cysteamide
modifications: not fully specified
As to B1, the Fold change in fluorescence intensity is 0.6 fold.
